Patent publication US20240166765A1, “INFLAMMATORY DISEASE TREATMENT USING ANTI-TISSUE FACTOR ANTIBODIES” (Iconic Therapeutics LLC, priority 2020, published 2024)

Columns and labels:
[1] = molecular target: T1, human TF (TF-positive MDA-MB-231 cells) (Homo sapiens, UniProt P13726); assay: Antibody competition assay with 43D7 on MDA-MB-231 cells; format: binding; details: 20 nM 43D7-Alexa488
T1 construct: Human TF-positive cancer cell lines A431 and MDA-MB-231; host or cells: MDA-MB-231
Procedure: Alexa Fluor antibodies were generated using Alexa Fluor 488 5-sulfo-[…] esters (ThermoFisher Scientific) following manufacturer's protocol. Excess Alexa Fluor dye was removed from the antibody dye conjugate preparations by gel filtration (ThermoFisher Scientific).
After another 1 hr incubation on ice, cells were washed, stained with a viability dye, and analyzed by flow cytometry. The Alexa488 fluorescence data from viable cells was summarized using median fluorescence intensity.

[2] = test system: thrombin generation (relipidated TF in normal pooled plasma); assay: Thrombin generation assay (TGA) with 10 min antibody pre-incubation; format: biochemical, human; details: Ab conc. 10 nM
Procedure: (§1) The TGA assay was performed using the calibrated-automated-thrombogram (CAT) instrument manufactured and distributed by STAGO. The test method design was equivalent to a standard CAT assay measurement, except that the plasma source was NPP in citrate/CTI. […] Relipidated TF was added to a 96-well assay plate, followed by addition of the antibody/NPP mixture. After a 10-min incubation or directly after combining the relipidated TF with antibody/NPP, thrombin generation was initiated by the addition of calcium and the thrombin substrate. The STAGO software was used to report the following parameters: Peak IIa (highest thrombin concentration generated [nM]); Lag Time (time to IIa generation [min]); ETP (endogenous thrombin potential, area under the curve [nM×min]); and ttPeak (time to Peak IIa [min]).
as §1, with “was normal pooled plasma (NPP)” for “was NPP”, “in citrate supplemented with corn trypsin inhibitor (citrate/CTI).” for “in citrate/CTI.”
TGA assay was performed using the calibrated-automated-thrombogram (CAT) instrument manufactured and distributed by STAGO (Diagnostica Stago SAS, Asnieres sur Seine, France). […] The anti-TF antibodies were titrated at 0, 10, 50 and 100 nM and mixed with NPP in citrate/CTI. Relipidated TF was added to a 96-well assay plate, followed by addition of the antibody/NPP mixture. After a 10-min incubation or directly after combining the relipidated TF with antibody/NPP, thrombin generation was initiated by the addition of calcium and the thrombin substrate. The STAGO software was used to report the following parameters: Peak IIa (highest thrombin concentration generated on the thrombin generation curve [nM]); Lag Time (time from assay start to the moment 10 nM of thrombin is formed [min]); ETP (endogenous thrombin potential, area under the curve [nM×min]); and ttPeak (time from assay start to Peak IIa [min]). […] As used herein, the term “thrombin generation assay” (TGA) refers to the TGA used in this example.

T1 sequence (P13726 33-295): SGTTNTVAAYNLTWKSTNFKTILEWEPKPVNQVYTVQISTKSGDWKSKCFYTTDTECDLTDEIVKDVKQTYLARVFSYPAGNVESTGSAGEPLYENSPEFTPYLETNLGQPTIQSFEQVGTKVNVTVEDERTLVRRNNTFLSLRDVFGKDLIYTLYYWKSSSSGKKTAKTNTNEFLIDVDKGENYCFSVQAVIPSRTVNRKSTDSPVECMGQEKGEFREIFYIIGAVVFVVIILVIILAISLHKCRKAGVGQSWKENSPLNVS

With TF-011 the “% 43D7 binding” value [1] was “did not reduce” and the ETP [2] was 792 nM·min.
